Residue numbers refer to the chain shown, from its start. Names may count otherwise.
B1: variant Fc-fragment Fc-5-51 (other)
chain: EPKSCDKTHTCPPCPAPELLGGPSVFLFPPKPKDTLMISRTPEVTCVVVDVSHEDPEVKFNWYVDGVEVHNAKTKPREEQYNSTYRVVSVLTVLHQDWLNGKEYKCKVSNKALPAPIEKTISKAKGQPREPQVYTLPPSRDELTKNQVSLTCLVKGFYPSDIAVEWESNGGCHLPFAVCGGGQPENNYKTTPPVLDSDGSFFLYSKLTVDKSRWQQGNVFSCSVMHEALHNHYTQKSLSLSPGK
notes: soluble elsewhere
B2: variant Fc-fragment Fc-5-57 (other)
chain: B1 chain with H173G, L174K, P175H, F176W, A177H, V178Q
notes: soluble elsewhere
B3: variant Fc-fragment Fc-5-64 (other)
chain: B1 chain with L174S, P175F, F176K, A177H, V178F
notes: soluble elsewhere
B4: variant Fc-fragment Fc-5-69 (other)
chain: B1 chain with H173W, L174P, P175L, F176Q, A177D, V178Y
notes: soluble elsewhere
B5: variant Fc-fragment Fc-5-92 (other)
chain: B1 chain with H173D, L174G, P175R, F176T, A177K, V178Y
notes: soluble elsewhere
B6: variant Fc-fragment Fc-5-96 (other)
chain: B1 chain with H173M, L174Q, P175M, F176N, A177K, V178W
notes: soluble elsewhere
B7: variant Fc-fragment Fc-5-113 (other)
chain: B1 chain with H173Q, L174G, P175M, F176W, A177T, V178W
notes: soluble elsewhere
B8: L6B isolate with insertion SEQ ID NO: 472 (other)
chain: EPKSCDKTHTCPPCPAPELLGGPSVFLFPPKPKDTLMISRTPEVTCVVVDVSHEDPEVKFNWYVDGVEVHNAKTKPREEQYNSTYRVVSVLTVLHQDWLNGKEYKCKVSNKALPAPIEKTISKAKGQPREPQVYTLPPSRDELGGCPNDTVRDACGGTKNQVSLTCLVKGFYPSDIAVEWESNGQPENNYKTTPPVLDSDGSFFLYSKLTVDKSRWQQGNVFSCSVMHEALHNHYTQKSLSLSPGK
B9: L6B isolate with insertion SEQ ID NO: 473 (other)
chain: B8 chain with P147S, N148F, D149S, T150R, V151H, R152M, D153G
B10: variant Fc-fragment Fc-5-73 (other)
chain: EPKSCDKTHTCPPCPAPELLGGPSVFLFPPKPKDTLMISRTPEVTCVVVDVSHEDPEVKFNWYVDGVEVHNAKTKPREEQYNSTYRVVSVLTVLHQDWLNGKEYKCKVSNKALPAPIEKTISKAKGQPREPQVYTLPPSRDELTKNQVSLTCLVKGFYPSDIAVEWESNGGCAQQWHHEYCGGGQPENNYKTTPPVLDSDGSFFLYSKLTVDKSRWQQGNVFSCSVMHEALHNHYTQKSLSLSPGK
notes: soluble elsewhere
B11: variant Fc-fragment Fc-5-104 (other)
chain: B1 chain with H173G, L174H, P175E, F176Y, A177M, V178W
notes: soluble elsewhere
B12: variant Fc-fragment Fc-5-112 (other)
chain: B1 chain with H173A, P175Y, F176P, A177T, V178N
notes: soluble elsewhere
B13: L5 isolate with insertion SEQ ID NO: 490 (other)
chain: EPKSCDKTHTCPPCPAPELLGGPSVFLFPPKPKDTLMISRTPEVTCVVVDVSHEDPEVKFNWYVDGVEVHNAKTKPREEQYNSTYRVVSVLTVLHQDWLNGKEYKCKVSNKALPAPIEKTISKAKGQPREPQVYTLPPSRDELTKNQVSLTCLVKGFYPSDIAVEWESNGGCDRQVTGFCGGGQPENNYKTTPPVLDSDGSFFLYSKLTVDKSRWQQGNVFSCSVMHEALHNHYTQKSLSLSPGK
B14: variant Fc-fragment Fc-5-60 (other)
chain: B1 chain with H173Q, L174K, P175G, F176W, A177V, V178F
notes: library L5 isolate
B15: variant Fc-fragment Fc-5-79 (other)
chain: B1 chain with H173V, L174N, P175T, F176W, A177W, V178S
notes: library L5 isolate
B16: variant Fc-fragment Fc-5-95 (other)
chain: B1 chain with H173D, L174R, F176V, A177W, V178F
notes: library L5 isolate
B17: variant Fc-fragment Fc-5-110 (other)
chain: B1 chain with H173W, L174G, P175S, F176R, A177S, V178Q
notes: library L5 isolate
B18: variant Fc-fragment Fc-5-55 (other)
chain: B1 chain with H173M, L174Q, P175V, F176W, A177G, V178S
notes: library L5 isolate
B19: variant Fc-fragment Fc-5-70 (other)
chain: B1 chain with H173M, L174V, A177S, V178M
notes: library L5 isolate
B20: variant Fc-fragment Fc-5-85 (other)
chain: B1 chain with H173I, L174G, A177W, V178W
notes: library L5 isolate
B21: variant Fc-fragment Fc-5-97 (other)
chain: B1 chain with H173N, L174M, P175L, F176W, A177G, V178S
notes: library L5 isolate
B22: variant Fc-fragment Fc-5-99 (other)
chain: B1 chain with H173Y, L174I, P175T, F176Q, A177K, V178L
notes: library L5 isolate
B23: variant Fc-fragment Fc-5-106-M4Q (other)
chain: B1 chain with H173V, L174F, P175N, F176Q, A177F, V178N
B24: variant Fc-fragment Fc-5-69-W1F (other)
chain: B1 chain with H173F, L174P, P175L, F176Q, A177D, V178Y
notes: also called Fc-5-69-WIF
B25: variant Fc-fragment Fc-5-69-W1Y (other)
chain: B1 chain with H173Y, L174P, P175L, F176Q, A177D, V178Y
notes: also called Fc-5-69-WIY
B26: variant Fc-fragment Fc-5-106-M4A (other)
chain: B1 chain with H173V, L174F, P175N, F176A, A177F, V178N
B27: variant Fc-fragment Fc-5-106-M4G (other)
chain: B1 chain with H173V, L174F, P175N, F176G, A177F, V178N
B28: variant Fc-fragment Fc-5-106-M4H (other)
chain: B1 chain with H173V, L174F, P175N, F176H, A177F, V178N
B29: variant Fc-fragment Fc-5-106-M4N (other)
chain: B1 chain with H173V, L174F, P175N, F176N, A177F, V178N
B30: variant Fc-fragment Fc-5-106-M4S (other)
chain: B1 chain with H173V, L174F, P175N, F176S, A177F, V178N

molecular target: T1, human neonatal Fc receptor (hFcRn) (human, UniProt P55899 24-290; P61769 21-119); experiment: phage ELISA pH 6;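 also: higher score means stronger binding and above about 3 to 5 exceeds background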
T1 construct: Biotinylated in the ELISA, Octet and yeast assays; also called human FcRn; huFcRn
T1 sequence (P55899 24-290 limits assumed, chain 1 of 2): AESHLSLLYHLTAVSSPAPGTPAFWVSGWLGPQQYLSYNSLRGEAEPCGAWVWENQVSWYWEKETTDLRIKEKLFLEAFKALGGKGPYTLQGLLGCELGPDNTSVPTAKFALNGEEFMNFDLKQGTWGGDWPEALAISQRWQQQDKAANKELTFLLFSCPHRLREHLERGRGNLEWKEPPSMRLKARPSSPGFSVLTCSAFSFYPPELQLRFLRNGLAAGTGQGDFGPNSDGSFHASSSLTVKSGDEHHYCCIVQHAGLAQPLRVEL
T1 sequence (P61769 21-119 limits assumed, chain 2 of 2): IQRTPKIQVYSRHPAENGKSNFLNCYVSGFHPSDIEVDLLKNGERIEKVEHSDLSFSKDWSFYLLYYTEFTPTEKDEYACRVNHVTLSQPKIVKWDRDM

| Binder | ELISA score |
| --- | --- |
| B1 | 82.5 |
| B2 | 57.8 |
| B3 | 57.2 |
| B4 | 76.7 |
| B5 | 64.1 |
| B6 | 72.7 |
| B7 | 56.1 |
| B8 | 42.2 |
| B9 | 41.8 |
| B10 | 54.5 |
| B11 | 82.4 |
| B12 | 62.7 |
| B13 | 25 |

molecular target: T1, human neonatal Fc receptor (hFcRn); experiment: phage ELISA pH 7.4;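 also: higher score means stronger binding and above about 3 to 5 exceeds background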

| Binder | ELISA score |
| --- | --- |
| B1 | 0.4 |
| B2 | 0.3 |
| B3 | 0.4 |
| B4 | 0.6 |
| B5 | 0.5 |
| B6 | 0.5 |
| B7 | 0.7 |
| B8 | 0.4 |
| B9 | 0.3 |
| B10 | 0.3 |
| B12 | 0.4 |
| B13 | 0.4 |

molecular target: T1, human neonatal Fc receptor (hFcRn); experiment: SPR competition pH 5.5
Description: (§1) Binding of variant Fc-fragments to human and cynomolgus monkey FcRn was tested using a BIAcore® T100 analysis system (GE Healthcare Bio-Sciences AB Private Limited Liability Company, Uppsala, Sweden) at both pH 5.5 and pH 7.4. The test consisted of incubating various concentrations of the variant Fc-fragments or control Fc-fragments with a fixed amount of human or cynomolgus monkey FcRn under binding conditions and subsequently measuring the amount of free, unbound FcRn in these mixtures by binding to a surface (in a flow cell of a CM5 (Biacore) chip) on which an Fc-fragment was immobilized. […] Thus, the amount of unbound FcRn in the mixture was quantitatively ascertained by surface plasmon resonance through use of the BIAcore® T100 analysis system. […] Initially, a group of 23 variant-Fc-fragments (Fc-5-1 being considered a control) identified in the experiments described above were tested for binding to human FcRn.
(§2) To obtain a reasonable signal for the different molecules and conditions tested, different assay conditions were used. For assays at pH 5.5, 10 nM of human or cynomolgus monkey FcRn was mixed with serial dilutions of the variant and control Fc-fragments being tested (which ranged from 0.1˜2,000 nM) and incubated for 1 hour at room temperature in 10 mM sodium acetate, pH 5.5, 150 mM NaCl, 0.005% P20, 0.1 mg/mL BSA. As positive controls, […] human and cynomolgus monkey FcRn were each incubated in the same solution, for the same time, and at the same temperature described immediately above, but without an added Fc-fragment.

| Binder | EC50 |
| --- | --- |
| B1 | 16 nM |
| B2 | 180 nM |
| B14 | 67 nM |
| B3 | 210 nM |
| B15 | 53 nM |
| B5 | 75 nM |
| B16 | 42 nM |
| B6 | 76 nM |
| B17 | 250 nM |
| B7 | 20 nM |
| B10 | 190 nM |
| B18 | 49 nM |
| B19 | 26 nM |
| B20 | 18 nM |
| B21 | 25 nM |
| B22 | 15 nM |
| B11 | 15 nM |
| B12 | 46 nM |

molecular target: T2, cynomolgus monkey FcRn (cynomolgus monkey, UniProt Q8SPV9 24-297; Q8SPW0 21-119, limits assumed); experiment: SPR competition pH 5.5
T2 construct: also called Cynomolgus FcRn
Description: as §1, §2

T2 sequence (Q8SPV9 24-297 limits assumed, chain 1 of 2): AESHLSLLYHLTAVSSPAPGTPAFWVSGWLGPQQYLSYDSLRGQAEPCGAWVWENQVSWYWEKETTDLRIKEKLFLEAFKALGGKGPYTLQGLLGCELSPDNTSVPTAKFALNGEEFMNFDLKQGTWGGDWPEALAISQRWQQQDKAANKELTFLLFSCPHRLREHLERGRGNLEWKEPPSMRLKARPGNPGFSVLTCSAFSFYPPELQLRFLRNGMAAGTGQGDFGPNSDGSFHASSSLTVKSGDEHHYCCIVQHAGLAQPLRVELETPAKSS
T2 sequence (Q8SPW0 21-119 limits assumed, chain 2 of 2): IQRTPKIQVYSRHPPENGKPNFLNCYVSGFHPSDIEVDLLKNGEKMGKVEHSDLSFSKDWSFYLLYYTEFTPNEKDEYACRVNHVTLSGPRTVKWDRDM

| Binder | EC50 |
| --- | --- |
| B1 | 21 nM |
| B14 | 60 nM |
| B4 | 18 nM |
| B15 | 63 nM |
| B16 | 50 nM |
| B7 | 27 nM |
| B18 | 53 nM |
| B19 | 27 nM |
| B20 | 25 nM |
| B21 | 31 nM |
| B22 | 16 nM |
| B11 | 16 nM |
| B12 | 49 nM |

molecular target: T1, human neonatal Fc receptor (hFcRn); experiment: SPR competition pH 5.5; remark: another data set of the same source

| Binder | EC50 |
| --- | --- |
| B23 | 34 nM |
| B4 | 20 nM |
| B24 | 57 nM |
| B25 | 140 nM |
| B26 | 27 nM |
| B27 | 100 nM |
| B28 | 100 nM |
| B29 | 100 nM |
| B30 | 58 nM |

— patent publication US20140356358A1 (Amgen, published 2014)
